Experimental data as given in publication PMC10302205, “Saccharomyces cerevisiae Δ9-desaturase Ole1 forms a supercomplex with Slc1 and Dga1” (The Journal of Biological Chemistry, 2023).

B1: NubG-Dga1 (full-length NubG-Dga1 fusion) [S. cerevisiae] / Ole1-Myc-Cub-LexA-VP16 [S. cerevisiae] (parent complex)
chain 1: MSGTFNDIRRRKKEEGSPTAGITERHENKSLSSIDKREQTLKPQLESCCPLATPFERRLQTLAVAWHTSSFVLFSIFTLFAISTPALWVLAIPYMIYFFFDRSPATGEVVNRYSLRFRSLPIWKWYCDYFPISLIKTVNLKPTFTLSKNKRVNEKNYKIRLWPTKYSINLKSNSTIDYRNQECTGPTYLFGYHPHGIGALGAFGAFATEGCNYSKIFPGIPISLMTLVTQFHIPLYRDYLLALGISSVSRKNALRTLSKNQSICIVVGGARESLLSSTNGTQLILNKRKGFIKLAIQTGNINLVPVFAFGEVDCYNVLSTKKDSVLGKMQLWFKENFGFTIPIFYARGLFNYDFGLLPFRAPINVVVGRPIYVEKKITNPPDDVVNHFHDLYIAELKRLYYENREKYGVPDAELKIVG
chain 2: MPTSGTTIELIDDQFPKDDSASSGIVDEVDLTEANILATGLNKKAPRIVNGFGSLMGSKEMVSVEFDKKGNEKKSNLDRLLEKDNQEKEEAKTKIHISEQPWTLNNWHQHLNWLNMVLVCGMPMIGWYFALSGKVPLHLNVFLFSVFYYAVGGVSITAGYHRLWSHRSYSAHWPLRLFYAIFGCASVEGSAKWWGHSHRIHHRYTDTLRDPYDARRGLWYSHMGWMLLKPNPKYKARADITDMTDDWTIRFQHRHYILLMLLTAFVIPTLICGYFFNDYMGGLIYAGFIRVFVIQQATFCINSLAHYIGTQPFDDRRTPRDNWITAIVTFGEGYHNFHHEFPTDYRNAIKWYQYDPTKVIIYLTSLVGLAYDLKKFSQNAIEEALIQQEQKKINKKKAKINWGPVLTDLPMWDKQTFLAKSKENKGLVIISGIVHDVSGYISEHPGGETLIKTALGKDATKAFSGGVYRHSNAAQNVLADMRVAVIKESKNSAIRMASKRGEIYETGKFF

Variants of: B1
Assay: integrated membrane yeast two-hybrid assay (β-galactosidase reporter); n = 3 biological replicates; parent: 1; read off a plot

**Q.** chain 1 K397A, chain 1 R398A, chain 1 D411A, chain 1 E413A, chain 1 K415A was tested. Which ratio to parent did it give?
**A.** ~0.2

**Q.** For chain 1 R404A, chain 1 E405A, chain 1 K406A, which ratio to parent is on record?
**A.** ~0.84
